# Experimental data as given in publication PMC7901142 (The Journal of Cell Biology, 2021).
# B1: SEMA4C (aa 686–833) (domain or fragment)
# chain: LRRRLREELEKGAKATERTLVYPLELPKEPTSPPFRPCPEPDEKLWDPVGYYYSDGSLKIVPGHARCQPGGGPPSPPPGIPGQPLPSPTRLHLGGGRNSNANGYVRLQLGGEDRGGLGHPLPELADELRRKLQQRQPLPDSNPEESSV
# Biological target: SNX27-PDZ WT (human, UniProt Q96L92 43-136)
# Test: ITC
binder,measurement,value
B1,Kd,4.5 µM
